The values that follow come from patent US20140045211.

Data set [1] has as its target 2D6 ubiquitin-CCL7 fusion.
The target in data set [2] is 3D3 ubiquitin-CCL7 fusion (ubiquitin I3L, V17L, I23V).

B1: Usp2-cc (catalytic core of the mouse deubiquitylating enzyme Usp2) (protein)
chain: SKSAQGLAGLRNLGNTCFMNSILQCLSNTRELRDYCLQRLYMRDLGHTSSAHTALMEEFAKLIQTIWTSSPNDVVSPSEFKTQIQRYAPRFMGYNQQDAQEFLRFLLDGLHNEVNRVAARPKASPETLDHLPDEEKGRQMWRKYLEREDSRIGDLFVGQLKSSLTCTDCGYCSTVFDPFWDLSLPIAKRGYPEVTLMDCMRLFTKEDILDGDEKPTCCRCRARKRCIKKFSVQRFPKILVLHLKRFSESRIRTSKLTTFVNFPLRDLDLREFASENTNHAVYNLYAVSNHSGTTMGGHYTAYCRSPVTGEWHTFNDSSVTPMSSSQVRTSDAYLLFYELASPPSRM
With B1, the “Usp2-cc cleavage time course (SDS-PAGE)” value is “the 2D6 fusion (2D6-CCL7) was only partially cleavable, with large amounts of fusion remaining uncleaved after 12 hr” in data set [1]; 3D3 ubiquitin (3D3-CCL7) was recognized and cleaved with efficiency similar to that observed for wildtype ubiquitin (WT-CCL7) in data set [2].
